Reference: paper PMC6744478
Blank lines part the entries; values can stand above or below the substance they belong to.

Assays:
[1] = target: R7BPΔNC (construct R7BPΔNC-TEV-TS) (human) (UniProt Q6MZT1); assay: SPR; OpenSPR (Nicoya), Streptavidin sensor chip; tagged R7BP variant as ligand, purified R7-RGS/Gβ5 duplex as analyte at 3–5 concentrations; PBS pH 7.4, 0.005% Tween20; 25 µL per minute; 1:1-binding model; two independent experiments
[2] = target: RGS7/TS-Gβ5 duplex (human) (UniProt P49802); assay: pull-down; Expi293 cells co-transfected with RGS7, TS-Gβ5, R7BP-HIS and either WDR61 (sample A) or R7BPΔNC (sample B); lysate on MagStrep type3 XT beads, 4 °C, one hour; Western blot with anti-Gβ5 and anti-R7BP, bands quantified
Chain of RGS7/TS-Gβ5 duplex (human) (P49802 whole entry, chain 1 of 2): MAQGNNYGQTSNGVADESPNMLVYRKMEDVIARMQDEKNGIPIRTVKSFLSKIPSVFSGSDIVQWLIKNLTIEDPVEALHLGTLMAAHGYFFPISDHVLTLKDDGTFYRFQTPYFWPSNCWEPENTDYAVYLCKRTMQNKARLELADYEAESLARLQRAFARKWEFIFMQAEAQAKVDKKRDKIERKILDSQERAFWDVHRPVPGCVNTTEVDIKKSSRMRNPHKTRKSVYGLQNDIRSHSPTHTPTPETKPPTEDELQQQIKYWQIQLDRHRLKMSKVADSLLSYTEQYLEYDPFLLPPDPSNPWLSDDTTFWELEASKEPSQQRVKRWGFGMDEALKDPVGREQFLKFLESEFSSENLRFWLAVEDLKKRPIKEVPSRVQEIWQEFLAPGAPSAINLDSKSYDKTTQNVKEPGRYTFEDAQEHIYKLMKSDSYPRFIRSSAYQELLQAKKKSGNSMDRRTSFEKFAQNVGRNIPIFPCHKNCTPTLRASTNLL
Chain of RGS7/TS-Gβ5 duplex (human) (O14775 43-395, chain 2 of 2, further chain): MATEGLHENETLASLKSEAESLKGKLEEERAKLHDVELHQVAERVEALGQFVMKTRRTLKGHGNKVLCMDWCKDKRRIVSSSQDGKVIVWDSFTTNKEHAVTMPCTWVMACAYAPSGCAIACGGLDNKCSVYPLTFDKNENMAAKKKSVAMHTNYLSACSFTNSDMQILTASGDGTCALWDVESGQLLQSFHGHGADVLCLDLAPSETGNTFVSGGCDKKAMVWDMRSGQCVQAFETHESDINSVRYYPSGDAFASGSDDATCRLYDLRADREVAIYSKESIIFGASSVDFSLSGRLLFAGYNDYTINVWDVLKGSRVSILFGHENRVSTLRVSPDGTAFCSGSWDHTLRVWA

Chain of RGS6/Gβ5 duplex (P49758 whole entry): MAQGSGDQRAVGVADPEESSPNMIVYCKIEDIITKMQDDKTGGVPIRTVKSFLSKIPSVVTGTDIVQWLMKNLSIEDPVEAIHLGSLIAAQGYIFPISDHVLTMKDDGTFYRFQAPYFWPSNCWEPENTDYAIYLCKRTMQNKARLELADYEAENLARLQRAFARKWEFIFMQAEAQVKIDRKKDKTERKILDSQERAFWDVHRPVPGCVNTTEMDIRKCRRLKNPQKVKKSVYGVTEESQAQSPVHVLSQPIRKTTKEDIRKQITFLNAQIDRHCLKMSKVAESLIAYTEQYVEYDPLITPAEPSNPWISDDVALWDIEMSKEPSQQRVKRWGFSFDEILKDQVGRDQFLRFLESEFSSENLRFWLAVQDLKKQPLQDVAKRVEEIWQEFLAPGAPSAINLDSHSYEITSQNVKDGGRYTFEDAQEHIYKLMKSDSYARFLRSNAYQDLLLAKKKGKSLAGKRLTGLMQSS
Chain of RGS6/Gβ5 duplex (O14775 43-395): as the sequence (O14775 43-395, chain 2 of 2, further chain) above
Chain of RGS11/Gβ5 duplex (O94810 whole entry): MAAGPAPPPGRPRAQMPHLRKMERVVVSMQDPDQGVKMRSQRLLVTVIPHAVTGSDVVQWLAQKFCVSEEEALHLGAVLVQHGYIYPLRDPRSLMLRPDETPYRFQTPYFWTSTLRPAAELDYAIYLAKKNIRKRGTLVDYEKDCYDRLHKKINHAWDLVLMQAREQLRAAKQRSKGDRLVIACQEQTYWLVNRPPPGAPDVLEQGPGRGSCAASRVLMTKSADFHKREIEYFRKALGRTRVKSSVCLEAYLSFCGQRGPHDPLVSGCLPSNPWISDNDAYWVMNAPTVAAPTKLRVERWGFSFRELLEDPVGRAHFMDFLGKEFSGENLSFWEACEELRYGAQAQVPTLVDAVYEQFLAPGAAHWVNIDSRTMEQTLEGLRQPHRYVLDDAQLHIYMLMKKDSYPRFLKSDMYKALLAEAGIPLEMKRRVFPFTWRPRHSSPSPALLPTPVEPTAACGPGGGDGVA
Chain of RGS11/Gβ5 duplex (O14775 43-395): as the sequence (O14775 43-395, chain 2 of 2, further chain) above
Chain of RGS7/Gβ5 duplex (P49802 whole entry): as the sequence (P49802 whole entry, chain 1 of 2) above
Chain of RGS7/Gβ5 duplex (O14775 43-395): as the sequence (O14775 43-395, chain 2 of 2, further chain) above
Chain of RGS9/Gβ5 duplex (O75916 whole entry): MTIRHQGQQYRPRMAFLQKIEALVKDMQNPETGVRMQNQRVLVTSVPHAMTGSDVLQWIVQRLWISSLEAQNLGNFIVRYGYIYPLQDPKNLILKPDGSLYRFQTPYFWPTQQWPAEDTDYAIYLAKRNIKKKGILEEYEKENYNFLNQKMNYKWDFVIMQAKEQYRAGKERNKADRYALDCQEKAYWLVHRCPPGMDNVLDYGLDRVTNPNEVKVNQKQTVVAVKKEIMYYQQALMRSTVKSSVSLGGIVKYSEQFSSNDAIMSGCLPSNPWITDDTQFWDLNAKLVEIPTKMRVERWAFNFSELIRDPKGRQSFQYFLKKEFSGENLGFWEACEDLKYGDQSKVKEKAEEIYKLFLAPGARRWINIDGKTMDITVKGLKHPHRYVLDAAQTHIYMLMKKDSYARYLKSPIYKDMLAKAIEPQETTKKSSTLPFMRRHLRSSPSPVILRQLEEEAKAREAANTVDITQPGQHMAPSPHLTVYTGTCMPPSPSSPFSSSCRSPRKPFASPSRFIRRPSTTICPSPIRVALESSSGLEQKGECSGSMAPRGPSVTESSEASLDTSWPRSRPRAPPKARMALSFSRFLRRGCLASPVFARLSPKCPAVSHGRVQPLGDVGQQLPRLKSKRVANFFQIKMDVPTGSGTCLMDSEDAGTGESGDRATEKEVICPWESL
Chain of RGS9/Gβ5 duplex (O14775 43-395): as the sequence (O14775 43-395, chain 2 of 2, further chain) above

Substance: RGS9/Gβ5 duplex (from UniProt O75916 1-674; O14775-2 1-353) (complex)
- Kd [1]: 3.2 nM

Substance: RGS11/Gβ5 duplex (from UniProt O94810 1-467; O14775-2 1-353) (complex)
- Kd [1]: 1.5 nM

Substance: R7BPΔNC (construct R7BPΔNC-TEV-TS) (from UniProt Q6MZT1 21-223) (domain or fragment)
- percent reduction of the binding of R7BP-FL with the RGS7/Gβ5 duplex [2]: 50%

More lines, in order of falling Kd [1], values ahead:

- Kd [1]: 2.3 nM
Substance: RGS7/Gβ5 duplex (from UniProt P49802 1-495; O14775-2 1-353) (complex)

- Kd [1]: 1.5 nM
Substance: RGS6/Gβ5 duplex (from UniProt P49758 1-472; O14775-2 1-353) (complex)
